First the molecules themselves.
B1: Ribonuclease, P00648 (parent)
chain: MMKMEGIALKKRLSWISVCLLVLVSAAGMLFSTAAKTETSSHKAHTEAQVINTFDGVADYLQTYHKLPDNYITKSEAQALGWVASKGNLADVAPGKSIGGDIFSNREGKLPGKSGRTWREADINYTSGFRNSDRILYSSDWLIYKTTDHYQTFTKIR

The variants in the data set derive from B1. The following applies: Bacillus amyloliquefaciens, pH 6.3, Fluorescence, structure 1BNI, whole UniProt chain shown.
Where [1] appears, read: 25 °C, GdnHCl, MES 450 mM, reversible: yes (100%).
Where [2] appears, read: 25 °C, Urea, MES 450 mM, reversible: yes (100%).
Where [3] appears, read: Thermal, MES 50 mM, reversible: yes (>85%).
The mark [4] stands for this setting: 48 °C, Thermal, MES 50 mM, reversible: yes (>85%).

MMKMEGIALKKRLSWISVCLLVLVSAAGMLFSTAAKTETSSHKAHTEAQVINTFDGVADYLQTYHKLPDNYITKSEAQALGWVASKGNLADVAPGKSIGGDIFSNREGKLPGKSGRTWREADINYTSGFRNSDRILYSSDWLVYKTTDHYQTFTKIR [I143V]: under setting [1], the “ddG of mutation (higher = less stable)” value worked out at 0.69 kcal/mol, the denaturant m value was determined as 4.64 kcal/mol/M, the “denaturant midpoint (higher = more stable)” value (“denaturant midpoint” below) amounted to 1.76 M and the unfolding free energy was determined as 8.19 kcal/mol. Also, under setting [2], the “ddG of mutation (higher = less stable)” value was found to be 0.74 kcal/mol, the denaturant m value came out at 2.11 kcal/mol/M, the “denaturant midpoint” value came out at 4.11 M and the unfolding free energy turned out to be 8.68 kcal/mol. Moreover, under setting [3], the midpoint of thermal melting (Tm) came to 51.5 °C; the “change of melting temperature, mutant - wild type (higher = more stable)” value (“change of melting temperature, mutant” for short) was -2.4 °C; the “unfolding enthalpy (van 't Hoff)” value worked out at 121 kcal/mol.
MMKMEGIALKKRLSWISVCLLVLVSAAGMLFSTAAKTETSSHKAHTEAQVINTFDGVADYLQTYHKLPDNYITKSEAQALGWVASKGNLADVAPGKSIGGDIFSNREGKLPGKSGRTWREADINYTSGFRNSDRILYSSDWLAYKTTDHYQTFTKIR [I143A]: under setting [1], the “ddG of mutation (higher = less stable)” value was 2.72 kcal/mol, the denaturant m value was 4.87 kcal/mol/M, the “denaturant midpoint” value stood at 1.26 M and the unfolding free energy stood at 6.16 kcal/mol. For the same variant, under setting [2], the “ddG of mutation (higher = less stable)” value came to 3.13 kcal/mol, the denaturant m value worked out at 2.18 kcal/mol/M, the “denaturant midpoint” value came to 2.89 M and the unfolding free energy is 6.29 kcal/mol. Further, under setting [4], the “ddG of mutation (higher = less stable)” value came out at 3.2 kcal/mol. Under setting [3], the Tm worked out at 44.9 °C; the “change of melting temperature, mutant” value was -9.6 °C; the “unfolding enthalpy (van 't Hoff)” value is 112 kcal/mol.
Consider MMKMEGIALKKRLSWISVCLLVLVSAAGMLFSTAAKTETSSHKAHTEAQVINTFDGVADYLQTYHKLPDNYITKSEAQALGWVASKGNLADVAPGKSIGGDIFSNREGKLPGKSGRTWREADINYTSGFRNSDRALYSSDWLIYKTTDHYQTFTKIR [I135A], for which, under setting [2], the “ddG of mutation (higher = less stable)” value turned out to be 4.08 kcal/mol, the denaturant m value worked out at 2.16 kcal/mol/M, the “denaturant midpoint” value was found to be 2.47 M and the unfolding free energy came to 5.34 kcal/mol. The “ddG of mutation (higher = less stable)” value under setting [4] worked out at 3.9 kcal/mol. Besides, under setting [3], the Tm was 42.7 °C; the “change of melting temperature, mutant” value is -11.2 °C; the “unfolding enthalpy (van 't Hoff)” value came to 106 kcal/mol.
Turning to MMKMEGIALKKRLSWISVCLLVLVSAAGMLFSTAAKTETSSHKAHTEAQVINTFDGVADYLQTYHKLPDNYITKSEAQALGWVASKGNLADVAPGKSIGGDIFSNREGKLPGKSGRTWREADINYTSGFRNSDRVLYSSDWLIYKTTDHYQTFTKIR [I135V], under setting [2], the “ddG of mutation (higher = less stable)” value is 1.47 kcal/mol, the denaturant m value was found to be 2.06 kcal/mol/M, the “denaturant midpoint” value turned out to be 3.87 M and the unfolding free energy came to 7.95 kcal/mol. Further, under setting [3], the Tm was 51 °C; the “change of melting temperature, mutant” value was -2.9 °C; the “unfolding enthalpy (van 't Hoff)” value came out at 117 kcal/mol.
As for MMKMEGIALKKRLSWISVCLLVLVSAAGMLFSTAAKTETSSHKAHTEAQVINTFDGVADYAQTYHKLPDNYITKSEAQALGWVASKGNLADVAPGKSIGGDIFSNREGKLPGKSGRTWREADINYTSGFRNSDRILYSSDWLIYKTTDHYQTFTKIR [L61A], under setting [2], the “ddG of mutation (higher = less stable)” value was determined as 4.65 kcal/mol, the denaturant m value is 2.08 kcal/mol/M, the “denaturant midpoint” value turned out to be 2.29 M and the unfolding free energy was determined as 4.77 kcal/mol. Besides, the “ddG of mutation (higher = less stable)” value under setting [4] is 4.2 kcal/mol. Further, under setting [3], the melting temperature (Tm) was determined as 42 °C; the “change of melting temperature, mutant” value was -11.9 °C; the “unfolding enthalpy (van 't Hoff)” value stood at 108 kcal/mol.
